Results: article PMC4503980 (Scientific Reports, 2015)
Ends that are not written are not given here. Peptide text beside a SMILES is read from it. * marks the point of attachment. X1 = CCN1C(=CC=CC=CC2=[N+](CCCCCC(=O)NCCN3C(=O)CC(*)C3=O)c3ccc(S(=O)(=O)[O-])cc3C2(C)C)C(C)(C)c2cc(S(=O)(=O)O)ccc21

Assays:
[1] = molecular target: PDZ1-2 (61-249) from PSD-95 (human); experiment: fluorescence polarisation; inhibition of TAMRA-Cnskr2 (5 nM)/PDZ2 (1.5 μM) or PDZ1-2 (1 μM) by increasing unlabelled nNOS-PDZ or GluN2B-C5; 1 x TBS pH 7.4; Ki calculated from IC50
[2] = molecular target: PDZ2 (155-249) from PSD-95 (human); experiment: as above
[3] = molecular target: TAMRA-labelled nNOS-PDZ (V36C) (human) (UniProt P29475); experiment: fluorescence polarisation; saturation binding: increasing PDZ domain protein (typically 0-150 μM) added to a fixed low concentration of TAMRA- or Cy5-labelled probe (5 or 50 nM); 1 x TBS (150 mM NaCl, 10 mM Tris, pH 7.4), 10-15 min, room temperature
TAMRA-Cnskr2 = experiment: as above
nNOS-PDZ = molecular target: T1, nNOS-PDZ (Homo sapiens, UniProt P29475); experiment: FP saturation and inhibition assay, Cy5-Nav1.4 probe / nNOS-PDZ; format: binding
T1 construct: nNOS-PDZ (12–130, human); made in house; host or cells: E. coli
Protocol: Fluorescent probes were made by attaching fluorophores (Cy5) to C-terminal 10- or 11-mer (C10 or C11) peptide ligands representing canonical and natural occurring protein partners (Supplementary Table S1). […] (Fig. 2).
(b) Cy5-GluN2B as probe (50 nM), [PDZ2] = 6 μM. (c) Cy5-CRIPT as probe (50 nM), [PDZ3] = 5 μM. […] Error bars indicate SEM based on three individual measurements.
nNOS-PDZ (12–130, human) and α-Syntrophin-PDZ (82–200, human), both comprising an N-terminal His-tag/FXa-site sequence ([…]), were likewise expressed in E. coli and purified by HisTrap chromatography followed by gel-filtration as described in details previously. To make the TAMRA-labelled nNOS-PDZ, mutant nNOS-PDZ (V36C) protein was generated by standard site-directed mutagenesis and characterized as described previously. Here, dithiothreitol was added to the pooled protein sample after HisTrap purification to a final concentration of 10 mM to eliminate unwanted disulfide bonds, and a final gel-filtration (50 mM NaPi buffer pH 7.5) was performed to remove impurities and salts. Next, purified nNOS-PDZ (V36C) was desalted by dialysis into 50 mM (NH4)2CO3 buffer (SnakeSkin dialysis tubing 3.5 MWCO, Pierce, Rockford, IL, USA) and subsequently lyophilized. nNOS-PDZ (V36C) was redissolved in 500 μL buffer (6 M GnHCl, 200 mM NaPi) and solid TAMRA-maleimide (5-tetramethylrhodamine-C2-maleimide; Anaspec, Fremont, CA, USA) was added in excess (cf. ESI-LC-MS). The coupling reaction was incubated at room temperature for 16 hours and TAMRA-labelled nNOS-PDZ was purified by preparative HPLC, and refolded in assay buffer. Functional validation was performed by FP[19], and all final proteins were characterized for purity and identity by SDS-PAGE and ESI-LC-MS.
Incubation time was 10–15 minutes (room temperature), and the assay was performed in a 1 × TBS buffer (150 mM NaCl, 10 mM Tris, pH 7.4) using black flat-bottom 384-well plates (Corning Life Sciences, NY) and a Safire2 plate-reader (Tecan, Männedorf, Switzerland). G-factor was adjusted so that probe alone (i.e. without protein interacting-partner) would give an FP value of 20 mP. This background value was subsequently subtracted from the raw data before plotting and analyzing the data. TAMRA- and Cy5-probes were measured at excitation/emission values of 530/585 nm (bandwidth = 20 nm) and 635/670 nm (bandwidth = 15 nm), respectively. […]
FP values were fitted to the general equation: Y = Bottom + (Top–Bottom)/[1 + (10^(X-logIC50)*HillSlope)], where X is the logarithmic value of peptide/compound concentration, and Y is the experimental FP values. Competitive inhibition constants, Ki values, were calculated from the IC50 values to quantify affinities between test substance and protein[42]. […]

[4] = molecular target: T2, PSD-95-PDZ2 (157-249, human) (human, UniProt P78352 157-249); experiment: ITC; 25 °C, 20 mM phosphate buffer pH 6.3; 100 μM PDZ2 in the cell titrated with 750 μM nNOS-PDZ; one-site model; conditions: both partners purified
T2 construct: PSD-95, human, PDZ2 domain, residues 157-249; Construct of the ITC and NMR experiments; 15N-labelled in some NMR samples

In the case of GluN2B-C5 (peptide), the Ki [1] is reported as 4.8 µM and the Ki [2] is reported as 1.6 µM.

Work on “PDZ1 (61-151) from PSD-95 (domain or fragment)” yielded a Kd [3] of 2.4 µM.

With “PDZ1-2 (61-249) from PSD-95 (domain or fragment)” the Kd (TAMRA-Cnskr2) was 1.1 µM and the Kd [3] was 0.15 µM.

With “PDZ2 (155-249) from PSD-95 (domain or fragment)” the Kd (TAMRA-Cnskr2) was 0.38 µM and the Kd [3] was 1.1 µM.

Molecule `CCN1C(=CC=CC=CC2=[N+](CCCCCC(=O)NCCN3C(=O)CC(SC[C@H](N)C(=O)N[C@@H](CC(N)=O)C(=O)N[C@@H](CC(N)=O)C(=O)NCC(=O)N[C@H](C(=O)N[C@@H](CCCNC(=N)N)C(=O)N4CCC[C@H]4C(=O)NCC(=O)N[C@H](C(=O)N[C@@H](CCCCN)C(=O)N[C@@H](CCC(=O)O)C(=O)N[C@@H](CO)C(=O)N[C@@H](CC(C)C)C(=O)N[C@H](C(=O)O)C(C)C)C(C)C)C(C)C)C3=O)c3ccc(S(=O)(=O)[O-])cc3C2(C)C)C(C)(C)c2cc(S(=O)(=O)O)ccc21` (some centres unmarked) [Cy5-Nav1.4] (H-C(X1)NNGVRPGVKESLV-OH; N-terminus assumed) has a Kd (nNOS-PDZ; saturation curve, probe 50 nM) of 20 ± 1 µM.

NNGVRPGVKESLV [Nav1.4-C10] showed a Ki (nNOS-PDZ; Cy5-Nav1.4 probe 50 nM / nNOS-PDZ) of 45 ± 4 µM.

B1: extended Mus musculus nNOS-PDZ (residues 12-134) (domain or fragment, UniProt Q9Z0J4 12-134, looked up)
chain: QPNVISVRLFKRKVGGLGFLVKERVSKPPVIISDLIRGGAAEQSGLIQAGDIILAVNDRPLVDLSYDSALEVLRGIASETHVVLILRGPEGFTTHLETTFTGDGTPKTIRVTQPLGTPTKAVD
notes: neuronal nitric oxide synthase (nNOS), Mus musculus, extended PDZ domain, residues 12-134, Uniprot Q9JJ30; Construct of the ITC and NMR experiments; 15N-labelled in some NMR samples; also called extended nNOS-PDZ; source: sub-cloned into pETM11, expressed and purified following a similar protocol to that of PSD-95-PDZ2
With B1 the dH [4] was about -1.7 kcal/mol and the “stoichiometry N” value [4] was 1.
